# Measured values: paper PMC4416881, “Regulation of Active DNA Demethylation by a Methyl-CpG-Binding Domain Protein in Arabidopsis thaliana” (PLoS Genetics, 2015)
# T1: His-IDL1 (Arabidopsis thaliana, UniProt Q9SYQ0 1-463)
# T1 construct: IDL1, Arabidopsis thaliana, AT1G20870; detected with antibodies against the His6 tag; also called His-tagged IDL1; source: E. coli, purified; not shown: His6, N-terminal, kept
# T1 sequence (looked up): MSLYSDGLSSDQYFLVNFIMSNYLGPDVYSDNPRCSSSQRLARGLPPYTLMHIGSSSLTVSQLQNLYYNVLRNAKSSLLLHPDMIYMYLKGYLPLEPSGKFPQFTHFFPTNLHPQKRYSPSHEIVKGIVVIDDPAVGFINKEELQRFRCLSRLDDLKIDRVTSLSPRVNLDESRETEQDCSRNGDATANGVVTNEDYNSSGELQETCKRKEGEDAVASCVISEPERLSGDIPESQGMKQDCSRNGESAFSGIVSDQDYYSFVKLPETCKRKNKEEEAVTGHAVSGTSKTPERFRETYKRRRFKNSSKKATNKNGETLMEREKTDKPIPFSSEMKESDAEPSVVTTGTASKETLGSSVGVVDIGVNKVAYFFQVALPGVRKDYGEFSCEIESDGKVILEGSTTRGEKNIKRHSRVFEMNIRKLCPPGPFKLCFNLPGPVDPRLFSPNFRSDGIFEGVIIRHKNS
# T2: MBP-IDL1 (Arabidopsis thaliana, UniProt Q9SYQ0 1-463)
# T2 construct: IDL1, Arabidopsis thaliana, AT1G20870; source: E. coli, fixed to an amylose resin; not shown: MBP, N-terminal, kept
# T2 sequence (looked up): T1 sequence (looked up)
# B1: MBP-IDM2 (natural protein, Arabidopsis thaliana, UniProt Q8RWL4 1-349, looked up)
# chain: MSDTMPEIVSPLVAENSQEQEESVLISLDIEEDKLFLLHFIIGTYFGPDLRKQHHRPKQSAFQIQALKNVVVDELSGSLMKRAELERVYYHIIRNVDPSLVMKPKKLREYFNAKRNDSNRDYPLFVDLFPRKLHPETHVRHKFKFIRSIVFINDPDTSCMREECVARFKRLTGLDSFALSLSVDVTKSNGVVAANEVKVEIDESVEPVKEDNAGTCTSGEESDVAAKPEVKSEAHGGLMVGLMDIGECDDAYLFRVSLPGVKRDERYFSCEVEDNGKVLVRGVTTTGGKRVKRYSHVFEMQTRSLCPPGNFSVSFRLPGPVHPHEFSGNFGTDGILEGVVMKNLQKQTV
# notes: IDM2, Arabidopsis thaliana, AT1G54840; source: E. coli, fixed to an amylose resin; not shown: MBP, N-terminal, kept
# B2: His-MBD7 (natural protein, Arabidopsis thaliana, UniProt Q9FJF4 1-306, looked up)
# chain: MQTRSSSSPSANHRRETQLQIADPTSFCGKIMPGWTVVNRPRSSNNGVVDTYFIEPGTGRQFSSLEAIHRHLAGEVNDRRLTRAGSFFQDKTRVYEGSRTKQDHCGVEYASKGFRLPRGWSVEEVPRKNSHYIDKYYVERKTGKRFRSLVSVERYLRESRNSIEQQLRVLQNRRGHSKDFRLPDGWIVEEKPRRSSSHIDRSYIEPGTGNKFRSMAAVERYLISVGNITLDSVSMVHSERLPLLMNRNGIRFQSEVIDPNPPKKVKWVLTGSGGNMFTANVRGSNVSSLVKHTWSEAFVSLIEDRS
# notes: MBD7, Arabidopsis thaliana, AT5G59800; detected with antibodies against the His6 tag; also called His-tagged MBD7; source: E. coli, purified; not shown: His6, N-terminal, kept
# How the values were obtained:
# Test in all cases: pull-down; MBP fusion from E. coli fixed to amylose resin, incubated with His-tagged protein purified from E. coli; immunoblot against His6 tag
# Details in all cases: both partners purified
# [1] = molecular target: T1, His-IDL1
# [2] = molecular target: B1
# [3] = molecular target: T2, MBP-IDL1
binding result [1],binding result [2],binding result [3],Binder
binds,,,B1
,binds,binds,B2
